First the molecules themselves.
B1: V239A: A2aR point mutant (protein, UniProt P29274 1-412, looked up, variant V239A)
Adenosine receptor A2a: MPIMGSSVYITVELAIAVLAILGNVLVCWAVWLNSNLQNVTNYFVVSLAAADIAVGVLAIPFAITISTGFCAACHGCLFIACFVLVLTQSSIFSLLAIAIDRYIAIRIPLRYNGLVTGTRAKGIIAICWVLSFAIGLTPMLGWNNCGQPKEGKNHSQGCGEGQVACLFEDVVPMNYMVYFNFFACVLVPLLLMLGVYLRIFLAARRQLKQMESQPLPGERARSTLQKEVHAAKSLAIIAGLFALCWLPLHIINCFTFFCPDCSHAPLWLMYLAIVLSHTNSVVNPFIYAYRIREFRQTFRKIIRSHVLRQQEPFKAAGTSARVLAAHGSDGEQVSLRLNGHPPGVWANGSAPHPERRPNGYALGLVSGGSAQESQGNTGLPDVELLSHELKGVCPEPPGLDDPLAQDGAGVS
B2: L235A: A2aR point mutant (protein, UniProt P29274 1-412, looked up, variant L235A)
Adenosine receptor A2a: MPIMGSSVYITVELAIAVLAILGNVLVCWAVWLNSNLQNVTNYFVVSLAAADIAVGVLAIPFAITISTGFCAACHGCLFIACFVLVLTQSSIFSLLAIAIDRYIAIRIPLRYNGLVTGTRAKGIIAICWVLSFAIGLTPMLGWNNCGQPKEGKNHSQGCGEGQVACLFEDVVPMNYMVYFNFFACVLVPLLLMLGVYLRIFLAARRQLKQMESQPLPGERARSTLQKEVHAAKSAAIIVGLFALCWLPLHIINCFTFFCPDCSHAPLWLMYLAIVLSHTNSVVNPFIYAYRIREFRQTFRKIIRSHVLRQQEPFKAAGTSARVLAAHGSDGEQVSLRLNGHPPGVWANGSAPHPERRPNGYALGLVSGGSAQESQGNTGLPDVELLSHELKGVCPEPPGLDDPLAQDGAGVS
B3: E151A: A2aR point mutant (protein, UniProt P29274 1-412, looked up, variant E151A)
Adenosine receptor A2a: MPIMGSSVYITVELAIAVLAILGNVLVCWAVWLNSNLQNVTNYFVVSLAAADIAVGVLAIPFAITISTGFCAACHGCLFIACFVLVLTQSSIFSLLAIAIDRYIAIRIPLRYNGLVTGTRAKGIIAICWVLSFAIGLTPMLGWNNCGQPKAGKNHSQGCGEGQVACLFEDVVPMNYMVYFNFFACVLVPLLLMLGVYLRIFLAARRQLKQMESQPLPGERARSTLQKEVHAAKSLAIIVGLFALCWLPLHIINCFTFFCPDCSHAPLWLMYLAIVLSHTNSVVNPFIYAYRIREFRQTFRKIIRSHVLRQQEPFKAAGTSARVLAAHGSDGEQVSLRLNGHPPGVWANGSAPHPERRPNGYALGLVSGGSAQESQGNTGLPDVELLSHELKGVCPEPPGLDDPLAQDGAGVS
B4: A231L: A2aR point mutant (protein, UniProt P29274 1-412, looked up, variant A231L)
Adenosine receptor A2a: MPIMGSSVYITVELAIAVLAILGNVLVCWAVWLNSNLQNVTNYFVVSLAAADIAVGVLAIPFAITISTGFCAACHGCLFIACFVLVLTQSSIFSLLAIAIDRYIAIRIPLRYNGLVTGTRAKGIIAICWVLSFAIGLTPMLGWNNCGQPKEGKNHSQGCGEGQVACLFEDVVPMNYMVYFNFFACVLVPLLLMLGVYLRIFLAARRQLKQMESQPLPGERARSTLQKEVHLAKSLAIIVGLFALCWLPLHIINCFTFFCPDCSHAPLWLMYLAIVLSHTNSVVNPFIYAYRIREFRQTFRKIIRSHVLRQQEPFKAAGTSARVLAAHGSDGEQVSLRLNGHPPGVWANGSAPHPERRPNGYALGLVSGGSAQESQGNTGLPDVELLSHELKGVCPEPPGLDDPLAQDGAGVS
B5: G118A: A2aR point mutant (protein, UniProt P29274 1-412, looked up, variant G118A)
Adenosine receptor A2a: MPIMGSSVYITVELAIAVLAILGNVLVCWAVWLNSNLQNVTNYFVVSLAAADIAVGVLAIPFAITISTGFCAACHGCLFIACFVLVLTQSSIFSLLAIAIDRYIAIRIPLRYNGLVTATRAKGIIAICWVLSFAIGLTPMLGWNNCGQPKEGKNHSQGCGEGQVACLFEDVVPMNYMVYFNFFACVLVPLLLMLGVYLRIFLAARRQLKQMESQPLPGERARSTLQKEVHAAKSLAIIVGLFALCWLPLHIINCFTFFCPDCSHAPLWLMYLAIVLSHTNSVVNPFIYAYRIREFRQTFRKIIRSHVLRQQEPFKAAGTSARVLAAHGSDGEQVSLRLNGHPPGVWANGSAPHPERRPNGYALGLVSGGSAQESQGNTGLPDVELLSHELKGVCPEPPGLDDPLAQDGAGVS
B6: G152A: A2aR point mutant (protein, UniProt P29274 1-412, looked up, variant G152A)
Adenosine receptor A2a: MPIMGSSVYITVELAIAVLAILGNVLVCWAVWLNSNLQNVTNYFVVSLAAADIAVGVLAIPFAITISTGFCAACHGCLFIACFVLVLTQSSIFSLLAIAIDRYIAIRIPLRYNGLVTGTRAKGIIAICWVLSFAIGLTPMLGWNNCGQPKEAKNHSQGCGEGQVACLFEDVVPMNYMVYFNFFACVLVPLLLMLGVYLRIFLAARRQLKQMESQPLPGERARSTLQKEVHAAKSLAIIVGLFALCWLPLHIINCFTFFCPDCSHAPLWLMYLAIVLSHTNSVVNPFIYAYRIREFRQTFRKIIRSHVLRQQEPFKAAGTSARVLAAHGSDGEQVSLRLNGHPPGVWANGSAPHPERRPNGYALGLVSGGSAQESQGNTGLPDVELLSHELKGVCPEPPGLDDPLAQDGAGVS
B7: A204L: A2aR point mutant (protein, UniProt P29274 1-412, looked up, variant A204L)
Adenosine receptor A2a: MPIMGSSVYITVELAIAVLAILGNVLVCWAVWLNSNLQNVTNYFVVSLAAADIAVGVLAIPFAITISTGFCAACHGCLFIACFVLVLTQSSIFSLLAIAIDRYIAIRIPLRYNGLVTGTRAKGIIAICWVLSFAIGLTPMLGWNNCGQPKEGKNHSQGCGEGQVACLFEDVVPMNYMVYFNFFACVLVPLLLMLGVYLRIFLALRRQLKQMESQPLPGERARSTLQKEVHAAKSLAIIVGLFALCWLPLHIINCFTFFCPDCSHAPLWLMYLAIVLSHTNSVVNPFIYAYRIREFRQTFRKIIRSHVLRQQEPFKAAGTSARVLAAHGSDGEQVSLRLNGHPPGVWANGSAPHPERRPNGYALGLVSGGSAQESQGNTGLPDVELLSHELKGVCPEPPGLDDPLAQDGAGVS
B8: Rant19: A2aR mutant A54L, T88A, V239A+A204L (protein, UniProt P29274 1-412, looked up, variant A54L T88A V239A A204L)
Adenosine receptor A2a: MPIMGSSVYITVELAIAVLAILGNVLVCWAVWLNSNLQNVTNYFVVSLAAADILVGVLAIPFAITISTGFCAACHGCLFIACFVLVLAQSSIFSLLAIAIDRYIAIRIPLRYNGLVTGTRAKGIIAICWVLSFAIGLTPMLGWNNCGQPKEGKNHSQGCGEGQVACLFEDVVPMNYMVYFNFFACVLVPLLLMLGVYLRIFLALRRQLKQMESQPLPGERARSTLQKEVHAAKSLAIIAGLFALCWLPLHIINCFTFFCPDCSHAPLWLMYLAIVLSHTNSVVNPFIYAYRIREFRQTFRKIIRSHVLRQQEPFKAAGTSARVLAAHGSDGEQVSLRLNGHPPGVWANGSAPHPERRPNGYALGLVSGGSAQESQGNTGLPDVELLSHELKGVCPEPPGLDDPLAQDGAGVS

The values that follow come from patent publication US8785135B2, “Mutant G-protein coupled receptors and methods for selecting them” (Heptares Therapeutics Limited, priority 2007, dated 2014).

The first data set can be described thus: Thermostability of A2aR and mutants (ligand binding after or during heating). Type of data set: physicochemical. Conditions: Ligand(−) format, binding after the heating step. From the text:
FIG. 12 Flow chart showing the two different assay formats of ligand (+) and ligand (−) used to determine receptor thermostability.
• 1. 315 site-directed mutants made between residues 2-316 of A2aR. • 2. All of these mutants have been assayed for thermostability using an assay measuring agonist and antagonist binding after the heating step (Ligand(−) format as described in FIG. 12). • a. […] Mutations have been combined to generate mutants in a putative antagonist conformation. Wildtype A2aR has a Tm of 31° C. with ZM241385 bound. • a. Rant17 A54L+K122A+L235A Tm 48° C. (ZM241385 bound) • b. Rant19 A54L, T88A, V239A+A204L Tm 47° C. (ZM241385 bound) • c. Rant21 A54L, T88A, V239A+K122A Tm 49° C. (ZM241385 bound) • 4. Mutations from the agonist screen have been combined, but have led to only a very low level of improvement in Tm of +2° C.
On to B1, for which the “thermostability assayed with 3H-ZM241385 (antagonist)” value (“thermostability assayed” for short) is listed as “improved thermostability”.
Take B2: the “thermostability assayed” value is given as “improved thermostability”.
For B3, the “thermostability assayed” value was “improved thermostability”.
For B4, the “thermostability assayed” value is “improved thermostability”.
As to B5, the “thermostability assayed” value is on record as “improved thermostability” and the “thermostability measured with 3H-NECA (agonist)” value was “improved thermostability”.
Take B6: the “thermostability assayed” value was “improved thermostability”.
Regarding B7, the “thermostability assayed” value is “improved thermostability”.

Staying with this data set, now noted: ZM241385 bound.
For the molecule B8, the Tm was determined as 47 °C.
